Measured values as given in patent publication US20240124586A1 (WUXI BIOLOGICS IRELAND, published 2024).
Read-outs that look alike come from different tables or passages of the source.

Columns and labels:
[1] = target: T1, human CD3 on CD3+ Jurkat cells (human, UniProt P07766 23-207; P09693 23-182; P04234 22-171); experiment: FACS on CD3+ Jurkat cells
T1 construct: whole, on cells; also called CD3 positive Jurkat cells

[2] = target: T1, human CD3 on CD3+ Jurkat cells; experiment: FACS on CD3+ Jurkat cells; remark: listed apart in the source
[3] = target: T1, human CD3 on CD3+ Jurkat cells; experiment: FACS on CD3+ Jurkat cells; remark: listed apart in the source
[4] = target: cynomolgus CTLA-4 protein (cynomolgus, UniProt G7PL88 36-161, Probably biotinylated for streptavidin-PE detection, as described for the human CTLA-4 reagent in paragraph 775; the letters cannot carry this.); experiment: FACS competition: blocks cynomolgus CTLA-4 protein binding to human CD80 engineered cells
Chain of cynomolgus CTLA-4 protein (G7PL88 entry or part of it limits assumed): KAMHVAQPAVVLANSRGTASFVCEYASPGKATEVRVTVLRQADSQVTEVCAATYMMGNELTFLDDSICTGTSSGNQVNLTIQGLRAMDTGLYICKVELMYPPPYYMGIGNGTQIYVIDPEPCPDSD
Experimental: (§1) Competitive FACS was used to test whether the antibodies could block human or cynomolgus CTLA-4 binding to hCD80 on cell surface. […] Then the mixtures of antibody and CTLA-4 were added to the cells and incubated for 1 hour at 4° C. The cells were washed two times with 200 μl FACS washing buffer (DPBS containing 1% BSA). Streptavidin PE (BD Pharmingen-554061) 1 to 600 diluted in FACS buffer was added to the cells and incubated at 4° C. for 1 hour. Additional washing steps were performed two times with 200 μL FACS washing buffer followed by centrifugation at 1500 rpm for 4 minutes at 4° C. Finally, the cells were resuspended in 100 μL FACS washing buffer and fluorescence values were measured by flow cytometry and analyzed by FlowJo.

[5] = target: T2, cynomolgus CTLA-4 on engineered 293F cells (W316-293F.cynoPro1.F1.Pool) (cynomolgus); experiment: FACS binding to cynomolgus CTLA-4 engineered cells
T2 construct: whole, on cells; also called cynomolgus CTLA-4 engineered cells
Experimental: (§2) 4-fold titrated Abs with 1% BSA DPBS from 40 μg/ml to 0.00004 μg/ml were added to the cells. Plates were incubated at 4° C. for 1 hour. After wash, […] 1:150 diluted PE-labeled goat anti-human antibody (Jackson 109-115-098) was added to each well and the plates were incubated at 4° C. for 1 hour. The binding of the antibodies onto the cells was tested by flow cytometry and the mean fluorescence intensity (MFI) was analyzed by FlowJo.

[6] = target: T3, biotinylated human CTLA-4.ECD.hFc (W316-hPro1.ECD.hFc.Biotin) (human, UniProt P16410 36-161, biotin-labelled (site not stated)); experiment: FACS competition: blocks biotinylated human CTLA-4.ECD.hFc binding to human CD80 engineered cells
T3 construct: extracellular domain; In-house protein; also called hCTLA-4.ECD.hFc-Biotin; human CTLA-4 protein
T3 sequence (P16410 36-161): as the sequence (G7PL88 entry or part of it limits assumed) above, with N14S, T18I, M106L counted along it
Experimental: as §1

[7] = target: T4, human CD19 on CD19+ B cell lines (Ramos, Raji) (human, UniProt P15391 20-556); experiment: FACS on CD19+ Ramos cells
T4 construct: whole, on cells; also called CD19+ Ramos cells; CD19+ Raji cells
T4 sequence (looked up): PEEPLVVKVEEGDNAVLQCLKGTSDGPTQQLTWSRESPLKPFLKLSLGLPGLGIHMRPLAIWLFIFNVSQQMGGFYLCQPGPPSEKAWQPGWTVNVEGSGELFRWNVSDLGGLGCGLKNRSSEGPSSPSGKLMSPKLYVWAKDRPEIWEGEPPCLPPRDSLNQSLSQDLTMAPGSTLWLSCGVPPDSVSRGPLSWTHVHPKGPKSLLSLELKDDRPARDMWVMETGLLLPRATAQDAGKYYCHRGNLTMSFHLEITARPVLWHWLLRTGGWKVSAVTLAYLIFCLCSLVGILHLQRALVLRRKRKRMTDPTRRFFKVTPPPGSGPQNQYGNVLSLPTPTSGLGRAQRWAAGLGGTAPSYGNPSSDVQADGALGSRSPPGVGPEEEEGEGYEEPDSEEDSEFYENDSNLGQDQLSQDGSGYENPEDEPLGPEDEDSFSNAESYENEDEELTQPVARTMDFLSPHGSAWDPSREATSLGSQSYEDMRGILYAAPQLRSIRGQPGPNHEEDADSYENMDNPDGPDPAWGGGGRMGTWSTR

[8] = target: T4, human CD19 on CD19+ B cell lines …; experiment: FACS on CD19+ Ramos cells; remark: listed apart in the source
[9] = target: T5, human CTLA-4 on engineered 293F cells (W316-293F.hPro1.FL) (human, UniProt P16410 36-223); experiment: FACS binding to human CTLA-4 engineered cells
T5 construct: whole, on cells; also called human CTLA-4 engineered cells; CTLA-4+ cells
T5 sequence (P16410 36-223, change not shown): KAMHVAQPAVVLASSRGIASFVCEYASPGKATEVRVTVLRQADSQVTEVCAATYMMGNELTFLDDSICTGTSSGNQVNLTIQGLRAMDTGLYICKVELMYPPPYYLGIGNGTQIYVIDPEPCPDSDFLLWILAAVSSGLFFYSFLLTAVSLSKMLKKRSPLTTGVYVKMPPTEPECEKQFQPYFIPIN
Experimental: as §2, with “3.16-fold” for “4-fold”, “200 nM” for “40 μg/ml”, “0.002 nM” for “0.00004 μg/ml”

[10] = target: T6, human PD-1 on engineered CHO-S cells (W305-CHO-S.hPro1.C6) (human, UniProt Q15116 25-288); experiment: ELISA binding to human PD-1 (legend says 'engineered cells'; the form of the antigen in the ELISA is not described)
T6 construct: whole, on cells; also called human PD-1 engineered cells; PD-1+ cells
T6 sequence (Q15116 25-288, change not shown): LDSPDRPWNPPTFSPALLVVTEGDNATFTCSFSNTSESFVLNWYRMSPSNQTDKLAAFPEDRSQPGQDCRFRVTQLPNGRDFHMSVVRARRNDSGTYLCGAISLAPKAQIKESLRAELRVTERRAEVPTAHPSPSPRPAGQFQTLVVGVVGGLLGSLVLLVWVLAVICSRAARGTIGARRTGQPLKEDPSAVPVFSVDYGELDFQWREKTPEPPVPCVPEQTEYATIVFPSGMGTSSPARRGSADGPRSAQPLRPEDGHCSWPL

[11] = target: T6, human PD-1 on engineered CHO-S cells …; experiment: FACS binding to human PD-1 engineered cells
Experimental: as §2, with “Engineered human PD-1 expressing cells W305-CHO-S.hPro1.C6 were seeded at 1×10⁵ cells/well in U-bottom 96-well plates (COSTAR 3799). Antibodies” for “4-fold titrated Abs”, “with 3.16-fold titration in” for “with”, “200 nM” for “40 μg/ml”, “0.002 nM” for “0.00004 μg/ml”, “The plates” for “Plates”, “1:125” for “1:150”

[12] = target: T5, human CTLA-4 on engineered 293F cells …; experiment: ELISA binding to human CTLA-4 (legend says 'engineered cells'; the form of the antigen in the ELISA is not described)

T1 sequence (P07766 23-207, chain 1 of 3): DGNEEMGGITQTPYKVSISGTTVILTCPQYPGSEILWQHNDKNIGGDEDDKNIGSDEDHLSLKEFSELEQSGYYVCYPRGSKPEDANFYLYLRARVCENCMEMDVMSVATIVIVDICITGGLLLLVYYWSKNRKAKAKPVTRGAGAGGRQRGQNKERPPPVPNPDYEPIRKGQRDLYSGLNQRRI
T1 sequence (P09693 23-182, chain 2 of 3): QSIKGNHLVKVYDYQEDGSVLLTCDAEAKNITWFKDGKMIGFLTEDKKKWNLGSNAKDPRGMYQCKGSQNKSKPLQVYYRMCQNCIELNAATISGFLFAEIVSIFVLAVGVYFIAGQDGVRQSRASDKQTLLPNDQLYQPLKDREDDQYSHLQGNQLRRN
T1 sequence (P04234 22-171, chain 3 of 3): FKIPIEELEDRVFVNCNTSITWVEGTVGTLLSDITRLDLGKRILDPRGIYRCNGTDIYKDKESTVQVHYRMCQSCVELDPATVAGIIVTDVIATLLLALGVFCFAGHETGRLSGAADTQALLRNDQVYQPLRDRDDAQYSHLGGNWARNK

B1: anti-CD3 antibody T3 (wild type, IgG1) (antibody, V domains shown)
VH: QVQLVQSGAEVKKPGSSVKVSCKASGFAFTDYYIHWVRQAPGQGLEWMGWISPGNVNTKYNENFKGRVTITADKSTSTAYMELSSLRSEDTAVYYCARDGYSLYYFDYWGQGTLVTVSS
VL: DIVMTQSPDSLAVSLGERATINCKSSQSLLNSRTRKNYLAWYQQKPGQPPKLLIYWASTRQSGVPDRFSGSGSGTDFTLTISSLQAEDVAVYYCTQSHTLRTFGGGTKVEIK
notes: Human IgG1; also called T3-IgG1; native antibody T3
[1]
  EC50 (read off the curve): ~0.2 nM
[2]
  EC50 (read off the curve): ~0.2 nM

B2: T3-IgG4 (antibody, V domains shown)
VH: QVQLVQSGAEVKKPGSSVKVSCKASGFAFTDYYIHWVRQAPGQGLEWMGWISPGNVNTKYNENFKGRVTITADKSTSTAYMELSSLRSEDTAVYYCARDGYSLYYFDYWGQGTLVTVSS
VL: DIVMTQSPDSLAVSLGERATINCKSSQSLLNSRTRKNYLAWYQQKPGQPPKLLIYWASTRQSGVPDRFSGSGSGTDFTLTISSLQAEDVAVYYCTQSHTLRTFGGGTKVEIK
notes: m1 is the IgG1 form of the same antibody; also called wild type anti-CD3 antibody T3 in IgG4 format
[3]
  EC50 (read off the curve): ~0.05 nM

B3: W3162_1.154.8-z35-IgG1K (antibody, V domains shown)
VH: QVQLVQSGAEVKKPGSSVKVSCKASGYTFTNYFMNWVRQAPGQGLEWMGRVDPEQGRADYAEKFKKRVTITADKSTSTAYMELSSLRSEDTAVYYCARRAMDNYGFAYWGQGTLVTVSS
VL: EIVLTQSPDFQSVTPKEKVTITCSANSALSYMYWYQQKPDQSPKLWVHGTSNLASGVPSRFSGSGSGTDFTLTINSLEAEDAATYYCHHWSNTQWTFGGGTKVEIK
notes: anti-CTLA-4 antibody, parent of the T5 arm; also called W3162_1.154.8-z35 (named T5)
[4]
  IC50: 1.47 nM
[5]
  EC50: 0.699 nM
  Top(MFI): 10800 MFI
[6]
  IC50: 0.594 nM

B4: anti-CD19 antibody U4 (wild type) (antibody, V domains shown)
VH: QMQLVQSGPEVKKPGTSVKVSCKASGYAFTSYNMYWVRQARGQRLEWIGYIDPYNGDTTYNQKFKGRVTITRDMSTSTAYMELSSLRSEDTAVYYCLTTAYAMDYWGQGTLVTVSS
VL: DIQLTQSPSFLSASVGDRVTITCSASSTVNYMHWYQQKPGKAPKLLIYSTSNLASGVPSRFSGSGSGTEFTLTISSLQPEDFATYYCHQWSSYPYTFGQGTKLEIKR
notes: also called native U4; wild type antibody U4
[7]
  EC50 (read off the curve): ~0.5 nM
[8]
  EC50 (read off the curve): ~0.3 nM

B5: U6T4.G26.IgG4, bispecific anti-PD-1 x CTLA-4 (bispecific antibody)
chain: EVQLLESGGGLVQPGGSLRLSCAASGFTFSSHAMSWVRQAPGKGLEWVSTITGGGGSIYYADSVKGRFTISRDNSKNTLYLQMNSLRAEDTAVYYCAKNRAGEGYFDYWGQGTLVTVLEDLKNVFPPEVAVFEPSEAEISHTQKATLVCLATGFYPDHVELSWWVNGKEVHSGVCTDPQPLKEQPALQDSRYALSSRLRVSATFWQNPRNHFRCQVQFYGLSENDEWTQDRAKPVTQIVSAEAWGRGGGGSGGGGSDIVMTQTPLSLSVTPGQPASISCRSSQSLLNSDGNTYLYWYLQKPGQSPQLLIYLVSKLGSGVPNRFSGSGSGTDFTLKISRVEAEDVGVYYCVQGTHDPWTFGGGTKVEIKRTVAAPSVFIFPPSDEQLKSGTASVVCLLNNFYPREAKVQWKVDNALQSGNSQESVTEQDSKDSTYSLSSTLTLSKADYEKHKVYACEVTHQGLSSPVTKSFNRGEC
light: SYELTQPLSVSVALGQTARITCGGDNIGNKDVHWYQQKPGQAPVLVIYRDSNRPSGIPEGFSGSNSGNTATLTISRAQAGDEADYYCQVWDSIWVFGGGTKLTVLPDIQNPDPAVYQLRDSKSSDKSVCLFTDFDSQTQVSQSKDSDVYITDKCVLDMRSMDFKSNSAVAWSQKSDFACANAFQNSIIPEDTFFPSPESS
heavy: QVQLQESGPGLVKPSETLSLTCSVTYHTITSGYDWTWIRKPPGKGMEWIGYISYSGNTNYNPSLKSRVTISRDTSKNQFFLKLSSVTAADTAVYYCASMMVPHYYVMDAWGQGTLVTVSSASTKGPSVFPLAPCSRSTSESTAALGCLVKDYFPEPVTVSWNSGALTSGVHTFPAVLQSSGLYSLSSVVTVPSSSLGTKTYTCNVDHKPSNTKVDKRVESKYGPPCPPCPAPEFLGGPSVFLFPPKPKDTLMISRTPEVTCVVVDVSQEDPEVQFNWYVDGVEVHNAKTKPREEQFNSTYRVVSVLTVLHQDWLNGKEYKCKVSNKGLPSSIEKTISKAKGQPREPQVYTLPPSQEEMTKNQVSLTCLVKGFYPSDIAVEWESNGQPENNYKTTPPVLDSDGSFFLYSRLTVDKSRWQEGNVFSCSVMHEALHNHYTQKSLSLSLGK
notes: Light-heavy crossed chimeric Fab; first chain is U6-HC fused to T4-LC; also called U6T4 antibody pair in G26 format
[9]
  EC50: 59.8 nM
[10]
  EC50: 0.102 nM
[11]
  EC50: 1.84 nM
[12]
  EC50: 0.177 nM
